According to patent US20230270877A1, “Combination Therapy” (Seagen Inc., priority 2020, published 2023):

Tests used:
human FcγRIIIa = biological target: T1, human FcγRIIIa (Homo sapiens, UniProt P08637); assay: FcγR binding by flow cytometry on transfected CHO cells; conditions: FIG. 11B-D
T1 construct: expressed in transfected cells; host or cells: CHO cells
Experimental: (§1) CHO cells were incubated with increasing concentrations of antibodies and a secondary antibody used to assess binding as monitored by flow cytometry.
(§2) For each cell line, 50 million cells were washed once in 50 mL of PBS. Cells were counted again and resuspended at 2.2 million cells/mL in BD stain buffer. Cells were plated in a 96-well round bottom plate at 0.1 mL of cells per well.
(§3) Antibody solutions were diluted to make the following final concentrations: 3 mg/mL, 1 mg/mL, 0.3 mg/mL, 0.1 mg/mL, 0.03 mg/mL, 0.01 mg/mL, 0.003 mg/mL, 0.001 mg/mL, 0.0003 mg/mL. Each antibody solution was diluted at 10×(i.e., […] of media) to produce the following concentrations: 300, 100, 30, 10, 3, 1, […] μg/ml. Media was removed from the cells and the cells were washed with media. 100 μL of antibody solution was added to each well. Antibody solutions were added with decreasing concentrations in the vertical direction. […]
(§4) Next, PE conjugated anti-human IgG Fc antibody was prepared (1/50 dilution of 1 mg/ml concentration=[…] saturating concentration) in BD stain buffer. […] Cells were resuspended in PBS+1% paraformaldehyde and kept at 4° C. until they were analyzed by flow cytometry. Samples were analyzed using the Attune flow cytometer. […]

human FcγRIIb = biological target: T2, human FcγRIIb (Homo sapiens, UniProt P31994); assay: as above; conditions: FIG. 11B-D
T2 construct: expressed in transfected cells; host or cells: CHO cells
T2 sequence (P31994 43-310): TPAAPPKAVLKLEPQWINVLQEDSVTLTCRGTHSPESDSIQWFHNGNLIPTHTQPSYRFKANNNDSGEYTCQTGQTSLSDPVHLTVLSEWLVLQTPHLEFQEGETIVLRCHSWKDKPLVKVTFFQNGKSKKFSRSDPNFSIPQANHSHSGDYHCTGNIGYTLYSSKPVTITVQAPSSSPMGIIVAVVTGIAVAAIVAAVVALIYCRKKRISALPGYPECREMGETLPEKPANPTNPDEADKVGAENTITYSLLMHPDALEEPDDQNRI
Experimental: as §1, §2, §3, §4

MM1S MM cells = assay: Disseminated MM xenograft survival model (MM1S); type: in vivo, SCID animals; conditions: 0.1 mg/kg SEA-BCMA weekly x5 IP and/or 0.01 mg/kg SGN-CD48A once IP; N=8/group; FIG. 21A
Experimental: MM1S MM cells were injected IV into SCID animals, which contain active innate immune effector cells to mediate ADCP and ADCC. Seven days post implant, dosing was initiated with 0.1 mg/kg SEA-BCMA and/or 0.01 mg/kg SGN-CD48A, and animals were monitored for survival. SEA-BCMA was dosed weekly for 5 weeks IP and SGN-CD48A was dosed once IP. Animals were followed for 160 days for survival (N=8/group). By day 51, all untreated animals had been humanely euthanized according to IACUC protocols.

Farage cells = type: in vivo; conditions: single agent, SEA-CD70 3 mg/kg or SGN-35 1 mg/kg

T1 sequence (P08637 17-254): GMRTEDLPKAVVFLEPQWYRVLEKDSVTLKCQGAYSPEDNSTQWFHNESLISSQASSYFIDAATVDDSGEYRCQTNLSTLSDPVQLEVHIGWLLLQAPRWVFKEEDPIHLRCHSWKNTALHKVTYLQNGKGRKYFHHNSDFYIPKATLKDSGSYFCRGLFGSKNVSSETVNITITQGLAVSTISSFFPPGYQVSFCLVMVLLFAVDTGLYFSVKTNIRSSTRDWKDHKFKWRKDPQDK

B1: SEA-CD40: nonfucosylated, humanized version of murine S2C6 anti-CD40; VH and VL of SEQ ID NOs: 28 and 29 (antibody, V domains shown)
VH: EVQLVESGGGLVQPGGSLRLSCAASGYSFTGYYIHWVRQAPGKGLEWVARVIPNAGGTSYNQKFKGRFTLSVDNSKNTAYLQMNSLRAEDTAVYYCAREGIYWWGQGTLVTVSS
VL: DIQMTQSPSSLSASVGDRVTITCRSSQSLVHSNGNTFLHWYQQKPGKAPKLLIYTVSNRFSGVPSRFSGSGSGTDFTLTISSLQPEDFATYFCSQTTHVPWTFGQGTKVEIK
modifications: nonfucosylated; VH of SEA-CD40; VL of SEA-CD40
affinity for FcγRIIIa (rank among CD40 antibodies tested) (human FcγRIIIa): highest affinity
affinity for FcγRIIb (rank among CD40 antibodies tested) (human FcγRIIb): lowest affinity

B2: SEA-BCMA: nonfucosylated antibody targeting B-cell maturation antigen (BCMA); VH and VL of SEQ ID NOs: 45 and 46 (antibody, V domains shown)
VH: QVQLVQSGAEVKKPGASVKLSCKASGYTFTDYYIHWVRQAPGQGLEWIGYINPNSGYTNYAQKFQGRATMTADKSINTAYVELSRLRSDDTAVYFCTRYMWERVTGFFDFWGQGTMVTVSS
VL: DIQMTQSPSSVSASVGDRVTITCLASEDISDDLAWYQQKPGKAPKVLVYTTSSLQSGVPSRFSGSGSGTDFTLTISSLQPEDFATYFCQQTYKFPPTFGGGTKVEIK
modifications: nonfucosylated; SGN-BCMA heavy chain variable region; SGN-BCMA light chain variable region
animals alive by day 160 (MM1S MM cells): zero

B3: SEA-CD70: nonfucosylated antibody targeting the CD70 antigen; VH and VL of SEQ ID NOs: 41 and 42 (antibody, V domains shown)
VH: QVQLVQSGAEVKKPGASVKVSCKASGYTFTNYGMNWVRQAPGQGLKWMGWINTYTGEPTYADAFKGRVTMTRDTSISTAYMELSRLRSDDTAVYYCARDYGDYGMDYWGQGTTVTVSS
VL: DIVMTQSPDSLAVSLGERATINCRASKSVSTSGYSFMHWYQQKPGQPPKLLIYLASNLESGVPDRFSGSGSGTDFTLTISSLQAEDVAVYYCQHSREVPWTFGQGTKVEIK
modifications: nonfucosylated; SEA-CD70 heavy chain variable region; SGN-CD70 light chain variable region
day at which tumors reached an average 5 fold increase of original size (Farage cells; day post implant, untreated 28.5): 34.5 days
days post treatment at which tumors reached an average 5 fold increase (Farage cells; untreated 9.5): 15.5 days post treatment
